Patent US20260167959A1, “APTAZYME-BASED REGULATABLE GENE EXPRESSION SYSTEMS” (REJUVENATE BIO INC, priority 2022, published 2026)
Changes are numbered by the printed parent chain.

B1: RA258 (nucleic acid)
DNA: GCGCGTCCTGGATTAGTGATACCAGCATCGTCTTGATGCCCTTGGCAGCACTCGCGGAAACGCGTACATCCAGCTGACGAGTCCCAAATAGGACGAAACGCGC
modifications: expressed or natural sequence
B2: RA273 (nucleic acid)
DNA: GCGCGTCCTGGATTCGCGGGAATACCAGCATCGTCTTGATGCCCTTGGAAGTCCGAAACGCGTACATCCAGCTGACGAGTCCCAAATAGGACGAAACGCGC
modifications: expressed or natural sequence
B3: RA262 (nucleic acid)
DNA: GCTGTCACCGGAATACCAGCATCGTCTTGATGCCCTTGGAAGTCCGGTCTGATGAGTCCCATAAGGACGAAACAGC
modifications: expressed or natural sequence
B4: RA252 (nucleic acid)
DNA: GCGCGTCCTGGATTCGCGGAAGTGATACCAGCATCGTCTTGATGCCCTTGGCAGCACTAACGCGTACATCCAGCTGACGAGTCCCAAATAGGACGAAACGCGC
modifications: expressed or natural sequence
B5: RA270 (nucleic acid)
DNA: GCGCGTCCTGGATTCGCGGAAACGCGTACATCCAGCTGACGAGTCCCAAATAGGACGAAGAATACCAGCATCGTCTTGATGCCCTTGGAAGTCTAACGCGC
modifications: expressed or natural sequence
B6: RA269 (nucleic acid)
DNA: GCGCGTCCTGGATTCGCGGAAACGCGAGAATACCAGCATCGTCTTGATGCCCTTGGAAGTCTTACATCCAGCTGACGAGTCCCAAATAGGACGAAACGCGC
modifications: expressed or natural sequence
B7: RA267 (nucleic acid)
DNA: GCGCGTCCTGGATTCGCGGAAACGCGTACATCCAGCTGACGAGTGGAATACCAGCATCGTCTTGATGCCCTTGGAAGTCCCCCAAATAGGACGAAACGCGC
modifications: expressed or natural sequence
B8: RA266 (nucleic acid)
DNA: GCGCGTCCTGGATTCGCGGAAACGCGCGAGAATACCAGCATCGTCTTGATGCCCTTGGAAGTCTCGTACATCCAGCTGACGAGTCCCAAATAGGACGAAACGCGC
modifications: expressed or natural sequence
B9: RA260 (nucleic acid)
DNA: GCGCGTCCTGGATTCGCGGAAACGCCGGAATACCAGCATCGTCTTGATGCCCTTGGAAGTCCGGCGTACATCCAGCTGACGAGTCCCAAATAGGACGAAACGCGC
modifications: expressed or natural sequence
B10: RA265 (nucleic acid)
DNA: GCGCGTCCTGGATTCGCGGAAACGCGTACATCCAGCTGACGAGTCCCAAAGGAATACCAGCATCGTCTTGATGCCCTTGGAAGTCCTAGGACGAAACGCGC
modifications: expressed or natural sequence
B11: RA253 (nucleic acid)
DNA: GCGCGTCCTGGATTCGCGGAAACGCGTACATGGAATACCAGCATCGTCTTGATGCCCTTGGAAGTCCCCAGCTGACGAGTCCCAAATAGGACGAAACGCGC
modifications: expressed or natural sequence
B12: RA259 (nucleic acid)
DNA: GCGCGTCCTGGATTCGCGGAAACGCGTACATCCAGCTGACGAGTCCCAAATAGGACGAAAAGTGATACCAGCATCGTCTTGATGCCCTTGGCAGCACTCGCGC
modifications: expressed or natural sequence
B13: RA256 (nucleic acid)
DNA: GCGCGTCCTGGATTCGCGGAAACGCGTACATGAGAATACCAGCATCGTCTTGATGCCCTTGGAAGTCTCCCAGCTGACGAGTCCCAAATAGGACGAAACGCGC
modifications: expressed or natural sequence
B14: RA257 (nucleic acid)
DNA: GCGCGTCCTGGATTCGCGGAAACGCCGGAATACCAGCATCGTCTTGATGCCCTTGGAAGTCCGGTACATCCAGCTGACGAGTCCCAAATAGGACGAAACGCGC
modifications: expressed or natural sequence
B15: RA251 (nucleic acid)
DNA: GCGCGTCCTGGACCGGAATACCAGCATCGTCTTGATGCCCTTGGAAGTCCGGTTCGCGGAAACGCGTACATCCAGCTGACGAGTCCCAAATAGGACGAAACGCGC
modifications: expressed or natural sequence
B16: RA272 (nucleic acid)
DNA: GCGCGTCCTGGATTCGCGGAAACGCGTACATCCAGCTGACGAGTCCCAAATAGGACGAAACGCGCAGAATACCAGCATCGTCTTGATGCCCTTGGAAGTCT
modifications: expressed or natural sequence
B17: RA264 (nucleic acid)
DNA: GCGCGTCCTGGATTCGCGGAAACGCGTACATCCAGCTAGAATACCAGCATCGTCTTGATGCCCTTGGAAGTCTGACGAGTCCCAAATAGGACGAAACGCGC
modifications: expressed or natural sequence
B18: RA025 (nucleic acid)
DNA: GCGCGTCCCGAGAATACCAGCATCGTCTTGATGCCCTTGGAAGTCTCGTGGATTCGCGGAAACGCGTACATCCAGCTGACGAGTCCCAAATAGGACGAAACGCGC
modifications: expressed or natural sequence
B19: RA254 (nucleic acid)
DNA: GCGCGTCCTGGATTCGCGGAAACGCGTACATCCAGCAGAATACCAGCATCGTCTTGATGCCCTTGGAAGTCTTGACGAGTCCCAAATAGGACGAAACGCGC
modifications: expressed or natural sequence
B20: RA255 (nucleic acid)
DNA: GCGCGTCCTGGATTCGCGGAAACGCGTACATCCAGCTGACGAGTCCCAAATAGGACGAAACCGGAATACCAGCATCGTCTTGATGCCCTTGGAAGTCCGGCGCGC
modifications: expressed or natural sequence
B21: RA026 (nucleic acid)
DNA: GCGCGTCCTGGATTCGCGGAAACGCGTACATCCAGCTGACGAGTCCGAGAATACCAGCATCGTCTTGATGCCCTTGGAAGTCTCGCCAAATAGGACGAAACGCGC
modifications: expressed or natural sequence
B22: RA268 (nucleic acid)
DNA: GCGCGTCCTGGATTCGCGGAAACGCGTACATCCAGCTGACGAGTCCCAAATAGGACGAAACGCGGAGAATACCAGCATCGTCTTGATGCCCTTGGAAGTCTCC
modifications: expressed or natural sequence
B23: RA261 (nucleic acid)
DNA: GCGCGTCCTGGATTCGCGGAAACGCGTACATCCAGCTGACGAGTCCCAACGAGAATACCAGCATCGTCTTGATGCCCTTGGAAGTCTCGATAGGACGAAACGCGC
modifications: expressed or natural sequence
B24: RA271 (nucleic acid)
DNA: B23 DNA with G51C, A52G, T87C, C88G
modifications: expressed or natural sequence
B25: RA263 (nucleic acid)
DNA: GCGCGTCCTGGATTCGCGGAAACGCGTACATCCAGCTGACGAGTCCCAAAAGTGATACCAGCATCGTCTTGATGCCCTTGGCAGCACTTAGGACGAAACGCGC
modifications: expressed or natural sequence
B26: RA274 (nucleic acid)
DNA: B25 DNA with A51G, G52A, T53G, G54A, C82A, C85T, A86C, C87T, T88C
modifications: expressed or natural sequence

Each molecule was assayed on Renilla luciferase RNA (assay: Barcoded aptazyme variant library screen: un-cleaved Renilla luciferase RNA by barcode read counts, HEK293-T cells). Details: un-cleaved Renilla luciferase RNA, HEK293-T cells cultured with 1 mM theophylline (ON) over without theophylline (OFF); barcode read counts, triplicate.
Type: cell-based
Source text: Based on the findings from Example 1, an aptazyme variant library was generated from the T3H48 ribozyme with one of seven variant theophylline aptamers inserted sequentially after each nucleotide of the DNA sequence encoding the T3H48 ribozyme sequence. […] The seven variant theophylline aptamers vary in their communication channels, which are the ribonucleotides of the aptamer that attach to the ribozyme sequence (see, Table 2).
The library was barcoded with unique sequences of nine nucleotides flanked by forward and reverse primer amplification sequences.
The aptazyme library was then PCR amplified and cloned into the psiCHECK™-2 dual luciferase vector in the 3′ UTR of the Renilla luciferase gene. […] The next day, the cells were isolated followed by DNA and RNA extraction using standard methods. The purified RNA was then converted to cDNA and the barcoded portion of the aptazyme library was PCR amplified. Similarly, the DNA was PCR amplified and all the samples were sequenced. All experimental conditions (with theophylline and without theophylline) were performed in triplicate. The read count for each barcode was determined with a custom build code and the data was normalized to identify the un-cleaved fractions of the Renilla luciferase RNA from cells that were cultured in the presence or absence of theophylline for each aptazyme, which was used to obtain the fold-change between ON- and OFF-states (FIG. 2).

In order of rising “Fold change in RNA expression between the ON state and the OFF state” value:
1. B2  1.0 fold
2. B5  1.0 fold
3. B6  1.0 fold
4. B7  1.0 fold
5. B8  1.0 fold
6. B10  1.0 fold
7. B16  1.0 fold
8. B17  1.0 fold
9. B22  1.0 fold
10. B24  1.0 fold
11. B26  1.0 fold
12. B1  1.1 fold
13. B3  1.1 fold
14. B4  1.1 fold
15. B9  1.1 fold
16. B11  1.1 fold
17. B12  1.1 fold
18. B13  1.1 fold
19. B14  1.1 fold
20. B15  1.1 fold
21. B19  1.1 fold
22. B20  1.1 fold
23. B23  1.1 fold
24. B25  1.1 fold
25. RA215 (DNA GCTGTCACCGGATGTGCTTTCCGGTACGTGAGGTCCGTGAGGACGAAACAGC; expressed or natural sequence)  1.2 fold
26. B21  2.4 fold
27. B18  2.5 fold
